Assay results: patent US20250092133A1 (Amgen, published 2025)
Substitutions are numbered along the chain they refer to. One block for each binder: values may come before it.

Assays:
[1] = biological target: T1, Hu CDH3 Dom3 mu (aa 328-440), human/mouse chimeric CDH3 on CHO cells (chimeric hu/mu); experiment: flow cytometry, transfected CHO cells; crude undiluted periplasmic scFv extract; anti-FLAG M2 + anti-mouse IgG Fcγ-PE; control PBS/2% FCS
Experimental: (§1) Cells transfected with human or murine CDH3, or with the chimeric human/mouse CDH3 molecules (see Example 1) were stained with crude, undiluted periplasmic extract containing scFv binding to human/macaque CDH3. […] As negative control, cells were incubated with PBS/2% FCS instead of the periplasmic extract. The samples were measured by flow cytometry.

[2] = biological target: T2, human CDH3 (P-cadherin) on cells (human, UniProt P22223 108-829); experiment: as above
T2 construct: The entry includes signal peptide and pro-peptide; extracellular domain D1 starts at aa 108; also called hu CDH3; hu CDH-3
Experimental: as §1

[3] = biological target: T3, Hu CDH3 Dom2 mu (aa 216-327), human/mouse chimeric CDH3 on CHO cells (chimeric hu/mu); experiment: as above
T3 chain: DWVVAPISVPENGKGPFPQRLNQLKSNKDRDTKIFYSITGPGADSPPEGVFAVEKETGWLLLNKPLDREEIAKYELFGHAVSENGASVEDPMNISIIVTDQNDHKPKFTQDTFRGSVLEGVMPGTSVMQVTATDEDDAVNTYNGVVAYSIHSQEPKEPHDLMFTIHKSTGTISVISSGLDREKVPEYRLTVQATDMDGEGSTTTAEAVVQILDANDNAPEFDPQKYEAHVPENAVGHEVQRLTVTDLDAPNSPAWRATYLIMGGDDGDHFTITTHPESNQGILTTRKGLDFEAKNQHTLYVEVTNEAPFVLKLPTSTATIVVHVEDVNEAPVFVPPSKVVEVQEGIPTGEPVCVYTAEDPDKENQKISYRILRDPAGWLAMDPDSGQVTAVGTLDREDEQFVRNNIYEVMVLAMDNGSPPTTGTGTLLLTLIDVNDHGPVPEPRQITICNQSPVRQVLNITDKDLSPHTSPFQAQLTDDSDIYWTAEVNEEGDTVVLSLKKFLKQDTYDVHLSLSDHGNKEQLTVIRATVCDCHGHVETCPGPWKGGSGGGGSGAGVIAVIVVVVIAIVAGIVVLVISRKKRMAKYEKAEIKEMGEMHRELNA
Experimental: as §1

[4] = biological target: Hu CDH3 Dom3B mu (aa 364-403), human/mouse chimeric CDH3 on CHO cells (chimeric hu/mu, UniProt P22223 108-681 (human entry)); experiment: as above
Experimental: as §1

[5] = biological target: T4, Hu CDH3 Dom3C mu (aa 404-440), human/mouse chimeric CDH3 on CHO cells (chimeric hu/mu, UniProt P22223 108-681 (human entry)); experiment: flow cytometry, transfected CHO cells; crude periplasmic scFv extract; anti-FLAG M2 + anti-mouse IgG Fcγ-PE
Experimental: as §1

[6] = biological target: T5, murine CDH3 on cells (mouse, UniProt P10287 100-822); experiment: as above
T5 construct: negative control; also called mouse CDH3
T5 sequence: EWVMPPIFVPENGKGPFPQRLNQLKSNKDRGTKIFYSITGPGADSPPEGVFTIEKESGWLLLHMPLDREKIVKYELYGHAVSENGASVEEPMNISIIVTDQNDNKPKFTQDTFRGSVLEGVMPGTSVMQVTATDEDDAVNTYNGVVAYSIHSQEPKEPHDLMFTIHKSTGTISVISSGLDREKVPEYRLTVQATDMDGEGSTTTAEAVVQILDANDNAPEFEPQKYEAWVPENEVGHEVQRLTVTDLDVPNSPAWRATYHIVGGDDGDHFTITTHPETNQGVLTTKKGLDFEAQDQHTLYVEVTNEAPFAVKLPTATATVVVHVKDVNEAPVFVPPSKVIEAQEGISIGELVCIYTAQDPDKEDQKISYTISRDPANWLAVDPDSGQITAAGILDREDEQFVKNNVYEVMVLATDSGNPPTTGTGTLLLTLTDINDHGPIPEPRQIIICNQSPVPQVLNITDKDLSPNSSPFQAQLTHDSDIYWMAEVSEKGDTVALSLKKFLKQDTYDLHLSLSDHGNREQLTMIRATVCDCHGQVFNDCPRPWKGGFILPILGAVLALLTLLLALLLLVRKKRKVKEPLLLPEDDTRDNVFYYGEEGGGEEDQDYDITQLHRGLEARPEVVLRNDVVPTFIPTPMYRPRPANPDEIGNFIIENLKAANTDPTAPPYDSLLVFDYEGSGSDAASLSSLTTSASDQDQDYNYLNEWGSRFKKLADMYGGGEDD
Experimental: as §1

[7] = biological target: Hu CDH3 Dom3A mu (aa 328-363), human/mouse chimeric CDH3 on CHO cells (chimeric hu/mu, UniProt P22223 108-681 (human entry)); experiment: as above
Experimental: as §1

[8] = biological target: T1, Hu CDH3 Dom3 mu (aa 328-440), …; experiment: as above
Experimental: as §1

[9] = biological target: T4, Hu CDH3 Dom3C mu (aa 404-440), …; experiment: flow cytometry, transfected CHO cells; crude undiluted periplasmic scFv extract; anti-FLAG M2 + anti-mouse IgG Fcγ-PE; control PBS/2% FCS
Experimental: as §1

[10] = biological target: T6, Hu CDH3 Dom1C mu (aa 180-215), human/mouse chimeric CDH3 on CHO cells (chimeric hu/mu, UniProt P22223 108-681 (human entry)); experiment: as above
T6 chain: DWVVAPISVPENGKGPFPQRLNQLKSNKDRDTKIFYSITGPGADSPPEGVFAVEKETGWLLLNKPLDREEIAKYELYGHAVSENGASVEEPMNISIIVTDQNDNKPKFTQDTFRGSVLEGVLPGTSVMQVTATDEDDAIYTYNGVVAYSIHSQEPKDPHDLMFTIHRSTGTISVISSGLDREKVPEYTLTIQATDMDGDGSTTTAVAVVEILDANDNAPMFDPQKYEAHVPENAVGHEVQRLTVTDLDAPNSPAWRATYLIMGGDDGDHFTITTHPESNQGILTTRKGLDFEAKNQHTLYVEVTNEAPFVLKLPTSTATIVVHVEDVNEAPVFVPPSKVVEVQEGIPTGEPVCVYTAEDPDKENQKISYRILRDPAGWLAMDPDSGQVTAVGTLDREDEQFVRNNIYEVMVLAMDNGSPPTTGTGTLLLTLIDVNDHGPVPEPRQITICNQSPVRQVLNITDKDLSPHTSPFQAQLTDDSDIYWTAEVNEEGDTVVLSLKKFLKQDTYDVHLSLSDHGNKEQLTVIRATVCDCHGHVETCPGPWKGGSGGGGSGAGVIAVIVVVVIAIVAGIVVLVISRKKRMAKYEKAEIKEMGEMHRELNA
Experimental: as §1

[11] = biological target: T7, Hu CDH3 Dom1B mu (aa 144-179), human/mouse chimeric CDH3 on CHO cells (chimeric hu/mu, UniProt P22223 108-681 (human entry)); experiment: flow cytometry, transfected CHO cells; crude periplasmic scFv extract; anti-FLAG M2 + anti-mouse IgG Fcγ-PE
T7 chain: T6 chain with A52T, V53I, T57S, N63H, K64M, E70K, A72V, Y77F, E90D, N104H
Experimental: as §1

- binding result [1]: binds
B1: CDH3-7 (scFv)
scFv: EVQLVEQSGAELVKPGASVKISCKASGYAFSSSWMNWVKQRPGKGLEWIGRIYPGDGETKYNGKFKGKATLTADKSSSTAYMQLSTLTSEDSAVYFCARQRDYGALYAMDYWGQGTSVTVSSGGGGSGGGGSGGGGSELQMTQSPASLSASVGETVTITCRLSENIYSYLAWYRQKEGESPQLLVYNSKTLAEGVPSRFSGSGSGTQFSLKINSLQPEDFGNYYCQNHYGFPFTFGAGTKLEIK
notes: Used as crude periplasmic extract and detected through a FLAG tag; also called CDH3-7 scFv

- binding result [2]: binds
- binding result [3]: binds
- binding result [4]: binds
- binding result [5]: no binding
- binding result [6]: no binding
- binding result [7]: no binding
- binding result [8]: no binding
B2: CDH3-32 scFv (scFv)
scFv: EVQLVEQPGAELVRPGTSVKLSCKASGYTFTSYWMHWVKQRPGQGLEWIGVIDTSDSYTIYNQKFKGKATLTVDTSSSTAYMQLSSLTSEDSSVYFCARSGPGYFDVWGQGTTVTVSSGGGGSGGGGSGGGGSELQMTQSPASLSASVGETVTITCRASENIYSYLAWYQQKQGKSPQLLVYNAKTLAEGVPSRFSGSGSGTQFSLKINSLQPEDFGSYYCQHHYGTPYTFGGGTKLEIK

- binding result [2]: binds
- binding result [9]: binds
- binding result [3]: binds
- binding result [4]: binds
- binding result [6]: no binding
- binding result [8]: no binding
B3: CDH3-33 scFv (scFv)
scFv: EVQLVEQPGAELVRPGTSVKLSCKASGYTFTSYWMHWVKQRPGQGLEWIGVIDTSDSYTIYNQKFKGKATLTVDTSSSTAYMQLSSLTSGDSSVYFCARSGPGYFDVWGQGTTVTVSSGGGGSGGGGSGGGGSELVMTQSPASLSASVGETVTITCRASGNIHNYLAWYQQKQGKSPQLLVYNAKTLADGVPSRFSGSGSGTQYSLKINSLQPEDFGTYYCQHFWSTPYTFGGGTKLEIK

- binding result [2]: binds
- binding result [10]: binds
- binding result [3]: binds
- binding result [1]: binds
- binding result [11]: no binding
B4: CDH3-6 scFv (scFv)
scFv: EVQLVEESGPELVKPGASVKISCKASGYAFSSSWMNWVKQRPGKGLEWIGRIYPGDGETKYNGKFKGKATLTADKSSSTAYMQLSSLTSEDSAVYFCARQRDYGALYAMDYWGQGTSVTVSSGGGGSGGGGSGGGGSELVMTQSPASLSASVGETVTITCRASDDIYSYLAWYQQKQGKSPQLLVYNAKTLAEGVPSRFSGSGSGTQFSLKINSLQPEDFGTYYCQNHYVTPFTFGAGTKLEIK

- binding result [2]: binds
- binding result [10]: binds
- binding result [3]: binds
- binding result [11]: no binding
B5: CDH3-5 (scFv)
scFv: EVQLVEQSGAELVKPGASVKISCKASGYAFSTSWMNWVKQRPGKGLEWIGRIYPGDGETKYNGKFKGKATLTADKSSSTAYMQLSSLTSEDSAVYFCARQRDYGALYALDYWGQGTRVTVSSGGGGSGGGGSGGGGSELMMTQTPASLSASVGETVTFTCRASENIYSYLAWYQQKQGKSPQLLVYNAKTLAEGVPSRFSGSGSGTQFSLKINSLQPEDFGSYYCQHHYVPPYTFGGGTKLEIK
notes: Used as crude periplasmic extract and detected through a FLAG tag; also called CDH3-5 scFv
